# Starred links: 1 amine or outer side, 2 acyl side, 3 side chain; linkers in the order of their positions; H or OH if unused. Positions of bridges follow the written chain, without caps; N, C: chain ends. Non-standard residues stand in square brackets, D forms with d. Chains are numbered I, II in the order given. No end group written: not given here. CO(CH2)2(OCH2CH2)17CO = O=C(CCOCCOCCOCCOCCOCCOCCOCCOCCOCCOCCOCCOCCOCCOCCOCCOCCOCCC(=O)[*:2])[*:1]; CO(CH2CH2O)9CH2CH2CO = O=C(CCOCCOCCOCCOCCOCCOCCOCCOCCOCCC(=O)[*:2])[*:1]; PEG12 = NCCOCCOCCOCCOCCOCCOCCOCCOCCOCCOCCOCCOCCC(=O)O; NMeF = CN[C@@H](Cc1ccccc1)C(=O)O; Ahp(2) = CCCCC[C@H](N)C(=O)O; hLys = NCCCCC[C@H](N)C(=O)O; NMeC = CN[C@@H](CS)C(=O)O
# B1: Peptide complex No. 29 in Table 4 (peptide SEQ ID NO: 24, GFs_c-Met-00014301p; linker SEQ ID NO: 38) (peptide)
# peptide: {CH2CO}-[NMeF]EAVS[NMeF]DPD[Ahp(2)]PRWS[NMeC]
# chain: GK[CO(CH2)2(OCH2CH2)17CO]KG
# modifications: thioether I:N-I:15 (inferred); also: homodimer of two cyclic peptides joined by linker G-K-cPEG17c-K-G, peptide C-terminus on linker
# B2: Peptide complex No. 21 in Table 4 (peptide SEQ ID NO: 13, GFs_c-Met_0012_8p; linker SEQ ID NO: 35) (peptide)
# peptide: {CH2CO}-[NMeF]VYVS[NMeF]DDD[hLys]PRWS[NMeC]
# chain: [PEG12]-Lys-[PEG12]
# modifications: thioether I:N-I:15 (inferred); also: homodimer: two cyclic peptides joined by linker PEG12c-K-PEG12c, peptide C-terminus on linker
# B3: Peptide complex No. 22 in Table 4 (peptide SEQ ID NO: 17, GFs_c-Met_0012_12p; linker SEQ ID NO: 35) (peptide)
# peptide: {CH2CO}-[NMeF]VYVS[NMeF]DDD[Ahp(2)]PRWA[NMeC]
# chain: [PEG12]-Lys-[PEG12]
# modifications: thioether I:N-I:15 (inferred); also: homodimer: two cyclic peptides joined by linker PEG12c-K-PEG12c, peptide C-terminus on linker
# B4: Peptide complex No. 20 in Table 4 (peptide SEQ ID NO: 11, GFs_c-Met_0012_6p; linker SEQ ID NO: 35) (peptide)
# peptide: {CH2CO}-[NMeF]VYVS[NMeF]DPD[Ahp(2)]PRWS[NMeC]
# chain: [PEG12]-Lys-[PEG12]
# modifications: thioether I:N-I:15 (inferred); also: homodimer: two cyclic peptides joined by linker PEG12c-K-PEG12c, peptide C-terminus on linker
# B5: Peptide complex No. 33 in Table 4 (peptide SEQ ID NO: 26, GFs_c-Met-00014299p; linker SEQ ID NO: 38) (peptide)
# peptide: {CH2CO}-[NMeF]QAVS[NMeF]DPD[Ahp(2)]PRWA[NMeC]
# chain: GK[CO(CH2)2(OCH2CH2)17CO]KG
# modifications: thioether I:N-I:15 (inferred); also: homodimer of two cyclic peptides joined by linker G-K-cPEG17c-K-G, peptide C-terminus on linker
# B6: Peptide complex No. 27 in Table 4 (peptide SEQ ID NO: 23, GFs_c-Met-00014298p; linker SEQ ID NO: 38) (peptide)
# peptide: {CH2CO}-[NMeF]EAVS[NMeF]DPD[Ahp(2)]PRWA[NMeC]
# chain: GK[CO(CH2)2(OCH2CH2)17CO]KG
# modifications: thioether I:N-I:15 (inferred); also: homodimer of two cyclic peptides joined by linker G-K-cPEG17c-K-G, peptide C-terminus on linker
# B7: Peptide complex No. 32 in Table 4 (peptide SEQ ID NO: 25, GFs_c-Met-00014296p; linker SEQ ID NO: 36) (peptide)
# peptide: {CH2CO}-[NMeF]QAVS[NMeF]DSD[Ahp(2)]PRWA[NMeC]
# chain: GK[CO(CH2CH2O)9CH2CH2CO]KG
# modifications: thioether I:N-I:15 (inferred); also: homodimer of two cyclic peptides joined by linker G-K-cPEG9c-K-G, peptide C-terminus on linker
# B8: Peptide complex No. 35 in Table 4 (peptide SEQ ID NO: 27, GFs_c-Met-00014302p; linker SEQ ID NO: 38) (peptide)
# peptide: {CH2CO}-[NMeF]QAVS[NMeF]DPD[Ahp(2)]PRWS[NMeC]
# chain: GK[CO(CH2)2(OCH2CH2)17CO]KG
# modifications: thioether I:N-I:15 (inferred); also: homodimer of two cyclic peptides joined by linker G-K-cPEG17c-K-G, peptide C-terminus on linker
# B9: Peptide complex No. 24 in Table 4 (peptide SEQ ID NO: 9, GFs_c-Met_0012_4p; linker SEQ ID NO: 36) (peptide)
# peptide: {CH2CO}-[NMeF]VAVS[NMeF]DDD[Ahp(2)]PRWS[NMeC]
# chain: GK[CO(CH2CH2O)9CH2CH2CO]KG
# modifications: thioether I:N-I:15 (inferred); also: homodimer of two cyclic peptides joined by linker G-K-cPEG9c-K-G, peptide C-terminus on linker
# B10: GFs c-Met-0012-PEG12 dimer (peptide SEQ ID NO: 2, GFs_c-Met_0012p; linker SEQ ID NO: 35) (peptide)
# peptide: {CH2CO}-[NMeF]VYVS[NMeF]DDD[Ahp(2)]PRWS[NMeC]
# chain: [PEG12]-Lys-[PEG12]
# modifications: thioether I:N-I:15 (inferred); also: homodimer: two cyclic peptides joined by linker PEG12c-K-PEG12c, peptide C-terminus on linker
# B11: Peptide complex No. 28 in Table 4 (peptide SEQ ID NO: 23, GFs_c-Met-00014298p; linker SEQ ID NO: 36) (peptide)
# peptide: {CH2CO}-[NMeF]EAVS[NMeF]DPD[Ahp(2)]PRWA[NMeC]
# chain: GK[CO(CH2CH2O)9CH2CH2CO]KG
# modifications: thioether I:N-I:15 (inferred); also: homodimer of two cyclic peptides joined by linker G-K-cPEG9c-K-G, peptide C-terminus on linker
# B12: Peptide complex No. 19 in Table 4 (peptide SEQ ID NO: 9, GFs_c-Met_0012_4p; linker SEQ ID NO: 35) (peptide)
# peptide: {CH2CO}-[NMeF]VAVS[NMeF]DDD[Ahp(2)]PRWS[NMeC]
# chain: [PEG12]-Lys-[PEG12]
# modifications: thioether I:N-I:15 (inferred); also: homodimer: two cyclic peptides joined by linker PEG12c-K-PEG12c, peptide C-terminus on linker
# B13: Peptide complex No. 39 in Table 4 (peptide SEQ ID NO: 29, GFs_c-Met-00014306p; linker SEQ ID NO: 38) (peptide)
# peptide: {CH2CO}-[NMeF]TAVSLDSD[Ahp(2)]PRWS[NMeC]
# chain: GK[CO(CH2)2(OCH2CH2)17CO]KG
# modifications: thioether I:N-I:15 (inferred); also: homodimer of two cyclic peptides joined by linker G-K-cPEG17c-K-G, peptide C-terminus on linker
# B14: Peptide complex No. 23 in Table 4 (peptide SEQ ID NO: 9, GFs_c-Met_0012_4p; linker SEQ ID NO: 38) (peptide)
# peptide: {CH2CO}-[NMeF]VAVS[NMeF]DDD[Ahp(2)]PRWS[NMeC]
# chain: GK[CO(CH2)2(OCH2CH2)17CO]KG
# modifications: thioether I:N-I:15 (inferred); also: homodimer of two cyclic peptides joined by linker G-K-cPEG17c-K-G, peptide C-terminus on linker
# B15: Peptide complex No. 26 in Table 4 (peptide SEQ ID NO: 22, GFs_c-Met-00014295p; linker SEQ ID NO: 36) (peptide)
# peptide: {CH2CO}-[NMeF]EAVS[NMeF]DSD[Ahp(2)]PRWA[NMeC]
# chain: GK[CO(CH2CH2O)9CH2CH2CO]KG
# modifications: thioether I:N-I:15 (inferred); also: homodimer of two cyclic peptides joined by linker G-K-cPEG9c-K-G, peptide C-terminus on linker
# B16: Peptide complex No. 25 in Table 4 (peptide SEQ ID NO: 22, GFs_c-Met-00014295p; linker SEQ ID NO: 38) (peptide)
# peptide: {CH2CO}-[NMeF]EAVS[NMeF]DSD[Ahp(2)]PRWA[NMeC]
# chain: GK[CO(CH2)2(OCH2CH2)17CO]KG
# modifications: thioether I:N-I:15 (inferred); also: homodimer of two cyclic peptides joined by linker G-K-cPEG17c-K-G, peptide C-terminus on linker
# B17: Peptide complex No. 30 in Table 4 (peptide SEQ ID NO: 24, GFs_c-Met-00014301p; linker SEQ ID NO: 36) (peptide)
# peptide: {CH2CO}-[NMeF]EAVS[NMeF]DPD[Ahp(2)]PRWS[NMeC]
# chain: GK[CO(CH2CH2O)9CH2CH2CO]KG
# modifications: thioether I:N-I:15 (inferred); also: homodimer of two cyclic peptides joined by linker G-K-cPEG9c-K-G, peptide C-terminus on linker
# B18: Peptide complex No. 36 in Table 4 (peptide SEQ ID NO: 27, GFs_c-Met-00014302p; linker SEQ ID NO: 36) (peptide)
# peptide: {CH2CO}-[NMeF]QAVS[NMeF]DPD[Ahp(2)]PRWS[NMeC]
# chain: GK[CO(CH2CH2O)9CH2CH2CO]KG
# modifications: thioether I:N-I:15 (inferred); also: homodimer of two cyclic peptides joined by linker G-K-cPEG9c-K-G, peptide C-terminus on linker
# B19: Peptide complex No. 38 in Table 4 (peptide SEQ ID NO: 28, GFs_c-Met-00014303p; linker SEQ ID NO: 36) (peptide)
# peptide: {CH2CO}-[NMeF]TRVS[NMeF]DSD[Ahp(2)]PRWS[NMeC]
# chain: GK[CO(CH2CH2O)9CH2CH2CO]KG
# modifications: thioether I:N-I:15 (inferred); also: homodimer of two cyclic peptides joined by linker G-K-cPEG9c-K-G, peptide C-terminus on linker
# B20: Peptide complex No. 18 in Table 4 (peptide SEQ ID NO: 6, GFs_c-Met_0012_1p; linker SEQ ID NO: 35) (peptide)
# peptide: {CH2CO}-[NMeF]TYVS[NMeF]DDD[Ahp(2)]PRWS[NMeC]
# chain: [PEG12]-Lys-[PEG12]
# modifications: thioether I:N-I:15 (inferred); also: homodimer: two cyclic peptides joined by linker PEG12c-K-PEG12c, peptide C-terminus on linker
# B21: Peptide complex No. 37 in Table 4 (peptide SEQ ID NO: 28, GFs_c-Met-00014303p; linker SEQ ID NO: 38) (peptide)
# peptide: {CH2CO}-[NMeF]TRVS[NMeF]DSD[Ahp(2)]PRWS[NMeC]
# chain: GK[CO(CH2)2(OCH2CH2)17CO]KG
# modifications: thioether I:N-I:15 (inferred); also: homodimer of two cyclic peptides joined by linker G-K-cPEG17c-K-G, peptide C-terminus on linker
# B22: Peptide complex No. 34 in Table 4 (peptide SEQ ID NO: 26, GFs_c-Met-00014299p; linker SEQ ID NO: 36) (peptide)
# peptide: {CH2CO}-[NMeF]QAVS[NMeF]DPD[Ahp(2)]PRWA[NMeC]
# chain: GK[CO(CH2CH2O)9CH2CH2CO]KG
# modifications: thioether I:N-I:15 (inferred); also: homodimer of two cyclic peptides joined by linker G-K-cPEG9c-K-G, peptide C-terminus on linker
# B23: Peptide complex No. 31 in Table 4 (peptide SEQ ID NO: 25, GFs_c-Met-00014296p; linker SEQ ID NO: 38) (peptide)
# peptide: {CH2CO}-[NMeF]QAVS[NMeF]DSD[Ahp(2)]PRWA[NMeC]
# chain: GK[CO(CH2)2(OCH2CH2)17CO]KG
# modifications: thioether I:N-I:15 (inferred); also: homodimer of two cyclic peptides joined by linker G-K-cPEG17c-K-G, peptide C-terminus on linker
# Molecular target: human c-Met protein (human, UniProt P08581 25-1390)
# Assay: cell-based or functional assay
# Sequence of human c-Met protein (P08581 25-1390): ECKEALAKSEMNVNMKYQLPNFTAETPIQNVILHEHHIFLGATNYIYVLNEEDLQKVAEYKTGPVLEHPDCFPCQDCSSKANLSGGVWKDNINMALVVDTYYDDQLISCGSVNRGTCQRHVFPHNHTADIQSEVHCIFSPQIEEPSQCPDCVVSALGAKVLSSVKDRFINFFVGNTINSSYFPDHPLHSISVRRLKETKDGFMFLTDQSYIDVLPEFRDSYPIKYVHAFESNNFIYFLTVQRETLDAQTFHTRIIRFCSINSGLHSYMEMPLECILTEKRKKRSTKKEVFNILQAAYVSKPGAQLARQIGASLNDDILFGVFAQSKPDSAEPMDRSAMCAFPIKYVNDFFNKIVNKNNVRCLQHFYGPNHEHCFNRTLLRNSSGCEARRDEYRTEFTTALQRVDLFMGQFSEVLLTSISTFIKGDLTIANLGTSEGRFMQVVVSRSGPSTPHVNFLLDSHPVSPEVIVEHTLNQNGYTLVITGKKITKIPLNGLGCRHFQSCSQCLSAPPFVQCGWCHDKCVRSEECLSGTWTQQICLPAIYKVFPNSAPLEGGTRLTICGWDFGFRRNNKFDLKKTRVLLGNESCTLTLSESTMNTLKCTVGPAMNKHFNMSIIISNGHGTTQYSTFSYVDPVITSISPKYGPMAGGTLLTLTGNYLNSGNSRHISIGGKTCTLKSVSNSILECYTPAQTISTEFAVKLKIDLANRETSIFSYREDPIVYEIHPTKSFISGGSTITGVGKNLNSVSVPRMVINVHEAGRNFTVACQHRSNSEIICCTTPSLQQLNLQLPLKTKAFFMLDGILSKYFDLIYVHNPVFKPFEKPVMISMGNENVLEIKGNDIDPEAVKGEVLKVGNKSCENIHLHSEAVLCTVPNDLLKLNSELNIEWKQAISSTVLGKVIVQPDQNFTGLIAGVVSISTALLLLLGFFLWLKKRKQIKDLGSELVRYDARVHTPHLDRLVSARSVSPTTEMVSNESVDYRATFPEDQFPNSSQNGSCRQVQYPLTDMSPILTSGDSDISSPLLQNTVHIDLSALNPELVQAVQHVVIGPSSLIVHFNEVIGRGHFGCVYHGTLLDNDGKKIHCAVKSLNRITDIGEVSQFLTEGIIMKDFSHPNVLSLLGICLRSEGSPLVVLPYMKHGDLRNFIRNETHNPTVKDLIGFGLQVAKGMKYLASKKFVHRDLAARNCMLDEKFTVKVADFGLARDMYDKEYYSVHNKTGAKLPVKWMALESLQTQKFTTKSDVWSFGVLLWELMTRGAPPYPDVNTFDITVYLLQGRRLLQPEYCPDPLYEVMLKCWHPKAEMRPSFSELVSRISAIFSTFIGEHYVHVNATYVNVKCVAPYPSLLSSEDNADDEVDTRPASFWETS
row,"C-Met Agonist Activity (C50; nM): phospho-c-Met AlphaLISA, A431 cells",Binder
1,0.88 nM,B1
2,2.17 nM,B2
3,2.37 nM,B3
4,2.22 nM,B4
5,2.05 nM,B5
6,2.37 nM,B6
7,0.61 nM,B7
8,0.92 nM,B8
9,1.27 nM,B9
10,0.76 nM,B10
11,1.24 nM,B11
12,1.22 nM,B12
13,1.44 nM,B13
14,0.91 nM,B14
15,0.75 nM,B15
16,0.81 nM,B16
17,0.81 nM,B17
18,0.73 nM,B18
19,0.65 nM,B19
20,1.31 nM,B20
21,0.49 nM,B21
22,1.26 nM,B22
23,0.68 nM,B23

# Source: patent US20250326865A1, “C-MET PROTEIN-BINDING PEPTIDE COMPLEX” (PeptiDream Inc., priority 2021, published 2025)
